B1: library; numbered along this chain (parent)
chain: MATDAALRRLLRLHRTEIAVAVDSAFPLLHALADHDVVPEDKFQETLHLKEKEGCPQAFHALLSWLLTQDSTAILDFWRVLFKDYNLERYGRLQPILDSFPKDVDLSQPRKGRKPPAVPKALVPPPRLPTKRKASEEARAAAPAALTPRGTASPGSQLKAKPPKKPESSAEQQRLPLGNGIQTMSASVQRAVAMSSGDVPGARGAVEGILIQQVFESGGSKKCIQVGGEFYTPSKFEDSGSGKNKARSSSGPKPLVRAKGAQGAAPGGGEARLGQQGSVPAPLALPSDPQLHQKNEDECAVCRDGGELICCDGCPRAFHLACLSPPLREIPSGTWRCSSCLQATVQEVQPRAEEPRPQEPPVETPLPPGLRSAGEEVRGPPGEPLAGMDTTLVYKHLPAPPSAAPLPGLDSSALHPLLCVGPEGQQNLAPGARCGVCGDGTDVLRCTHCAAAFHWRCHFPAGTSRPGTGLRCRSCSGDVTPAPVEGVLAPSPARLAPGPAKDDTASHEPALHRDDLESLLSEHTFDGILQWAIQSMARPAAPFPS

Variants of: B1
Assay: AIRE transcriptional activation functional score (insulin promoter-GFP; nonsense median 0, synonymous median 1) (normalised score); higher = higher AIRE activity (more reporter activation)
Conditions: with insulin promoter-GFP reporter in HEK293
Protocol: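 Deep mutational scan of full-length human AIRE (codon-optimized cDNA, DT-POPCode NNN libraries over three regions) integrated at a Bxb1 landing pad in HEK293 cells carrying an insulin core promoter-GFP reporter at a Flp-In site. Cells were sorted for the top 10% GFP about 14 days after transfection. Variant frequency log-ratios (select vs non-select, TileSeq) were rescaled so that the nonsense median is 0 and the synonymous median is 1, then averaged over biological replicates.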

AIRE transcriptional activation functional score of substitutions, site by site:
S250: W 0.939 | Y 1.26
G251: A 0.845 | C 0.932 | D 1.2 | E 1.44 | F 1.2 | H 1.02 | I 1.2 | K 1.05 | L 1.21 | M 0.603 | N -0.159 | P -0.0792 | Q 0.448 | R 0.585 | S 0.796 | T 1.09 | V 1.22 | W 1.36 | Y 1.42
P252: A 1.02 | C 0.763 | D 0.862 | F 0.977 | G 0.0827 | H 0.544 | I 0.937 | L 1.15 | M 1.88 | N 1.41 | Q 0.904 | R 0.567 | S 1.03 | T 0.961 | V 1.35 | W 0.608 | Y 0.649
K253: A 1.28 | C 1.39 | D -0.542 | E 0.587 | F 0.823 | G 0.631 | I 0.921 | L 0.694 | M 1.04 | N 0.817 | P 0.292 | Q 1.95 | R 0.777 | S 0.754 | T 0.479 | V 0.867 | W 1.23 | Y 0.499
P254: A 0.885 | C 1.24 | D 0.547 | E 0.818 | F 0.266 | G 0.342 | H 0.946 | I 0.86 | K 0.683 | L 1.01 | M 0.826 | N -0.115 | Q 1.2 | R 0.606 | S 0.995 | T 0.737 | V 1.27 | W 1.07 | Y 1.28
L255: A 0.9 | C 0.506 | D 0.362 | E 0.58 | F 1.43 | G 1.24 | H 1.28 | I 0.98 | M -0.804 | N 0.614 | P 1.03 | Q 1.01 | R 0.419 | S 0.79 | T 0.506 | V 1 | W 1.1 | Y 0.945
V256: A 1.16 | C 0.771 | D 0.705 | E 0.8 | F 1.33 | G 1.05 | H 0.851 | I 0.599 | K 0.102 | L 0.974 | M 0.911 | N 0.685 | P 0.878 | Q 0.671 | R 0.207 | S 1.07 | T 0.8 | W 1.37 | Y 1.39
R257: A 0.916 | C -0.159 | D 1.16 | E 1.12 | F 0.785 | G 0.771 | I 0.805 | K 0.866 | L 0.834 | M 0.588 | N -1.39 | P 0.935 | Q 0.729 | S 0.904 | T 0.86 | V 0.256 | W 0.743
A258: C 1.18 | D 0.387 | E 1.13 | F 1.19 | G 0.943 | H 1.05 | I 0.643 | L 0.814 | M 0.409 | P 1.23 | Q 0.586 | R 0.0043 | S 0.657 | T 0.978 | V 1.36 | W 1.05
K259: A 1.23 | C 1.33 | D -0.753 | E 0.714 | F 1.08 | G -0.585 | H 0.439 | I 0.551 | L 0.941 | M 1.2 | N 1.03 | P 0.82 | Q 0.922 | R 0.916 | S 0.917 | T 0.966 | W 1.19 | Y 1.31
G260: A 0.8 | C 1.01 | D 0.772 | E 1.03 | F 0.949 | H 1.19 | I 1.39 | K 0.721 | L 1.29 | M 2.15 | N 1.12 | R 1.04 | S 1.12 | T 1.26 | V 1.3 | W 1.18 | Y 1.14
A261: C 1.11 | D 0.731 | E 1.11 | F 1.22 | G 1.01 | H 0.579 | I 0.612 | K 0.843 | L 0.746 | M 1.19 | N 0.506 | P 1.06 | Q 1.17 | R 0.741 | S 0.631 | T 1.07 | V 1.13 | W 1.33 | Y 1.12
Q262: A 1.2 | C 0.939 | D 1.13 | E 1.38 | F 1.61 | G 1.33 | H 0.819 | I 1.04 | K 0.987 | L 1.31 | M 0.443 | N 1.13 | P 1.16 | R 0.909 | S 0.84 | T 0.795 | V 0.657 | W 1.26 | Y 1.05
G263: A 0.875 | C 0.73 | D 1.31 | E 1.42 | F 0.212 | H 0.227 | I -0.607 | K 1.27 | L 0.99 | M 0.957 | P 0.887 | Q -0.785 | R 0.812 | S 1.23 | T 1.06 | V 1.25 | W 1.29 | Y 1.34
A264: C 0.799 | D -0.0126 | E 0.901 | F 1 | G 1.29 | H 1.68 | I -1.66 | K 0.671 | L 1.18 | M 1.01 | P 0.912 | Q 0.566 | R 1.05 | S 1.18 | T 1.22 | V 1.07 | W 1.57 | Y -0.0795
A265: C 0.821 | D 0.751 | E 0.963 | F 1.53 | G 0.964 | H 0.76 | I 0.975 | K 0.641 | L 1.21 | M 1.55 | N 1.54 | P 0.806 | Q 0.479 | R 0.748 | S 1.03 | T 1.01 | V 1.11 | W 0.598 | Y 1.25
P266: A 1.01 | C 1.09 | D 0.85 | E 0.486 | F 1.38 | G 0.877 | H 1.08 | I 1.13 | K 1.19 | L 0.925 | M 1.44 | N 0.956 | Q 0.916 | R 0.795 | S 0.824 | T 1.05 | V 0.93 | W 0.984 | Y 1.06
G267: A 0.9 | C 1.11 | D 0.595 | E 1.87 | H 1.38 | I 1.18 | L 0.938 | N 0.868 | P 0.902 | R 0.84 | S 0.894 | T 1.8 | V 1.12 | W 1.49 | Y 1.02
G268: A 0.981 | C 1.21 | D 0.854 | E 1.14 | F 1.38 | H 0.564 | I 1.19 | K 0.831 | L 1.05 | M 1.12 | N 0.988 | P 0.869 | Q 0.515 | R 1.09 | S 1.09 | T 0.742 | V 1.02 | W 1.62 | Y 0.298
G269: A 1.39 | C 0.879 | D 0.649 | E 1.1 | F 1.42 | H 0.996 | I 1.06 | K 1.07

From the supplement of paper PMC12667976
